Data as given in US20060183195A1 (published 2006).

Key:
[1] = target: T1, recombinant soluble human CD4 (human, UniProt P01730 26-396, limits assumed); experiment: BIAcore, mAb captured on anti-human IgG Fc chip, rCD4 flowed over
T1 construct: Soluble recombinant antigen used in ELISA and on or over the sensor chip; also called rCD4; sCD4
Protocol: The rate and equilibrium constants presented in Table 18 were determined with a BIAcore (Pharmacia Biosensor) using goat anti-human IgG (Fc-specific) coupled to the sensor chip and flowing a saturating concentration of mAb over followed by various concentrations of antigen (rCD4). These constants were derived from three experiments using purified mAbs.

[2] = target: T2, native human CD4 on the cell surface (human, UniProt P01730 26-458); experiment: ratio of Ka on rCD4 (BIAcore) to Ka on nCD4 (flow cytometry, SupT1)
T2 construct: whole, on cells; also called native CD4; CD4 on SupT1 cells
Protocol: (§1) The rate and equilibrium constants presented in Table 19 were determined with a BIAcore, using antigen (rCD4) coupled to the sensor chip and flowing mAb over. These constants were derived from at least three independent experiments using purified mAbs.
(§2) The avidity and affinity determinations described above were performed with recombinant CD4 (rCD4). To determine the avidity of the human monoclonal antibodies for native CD4 (nCD4). […] Specifically, serial dilutions of antibody were incubated with SupT1 cells for 6 hr on ice, washed and detected any bound antibody with FITC-goat anti-human Fey.
(§3) *Human monoclonal antibodies were incubated in serial dilutions with SupT1 cells for 6 hrs, washed twice and incubated with FITC-conjugated goat anti-human Fey antisera, washed and fixed. The Ka was calculated from the concentration of antibody yielding one-half of the maximum fluorescence as determined from a four-parameter fit.

[3] = target: T2, native human CD4 on the cell surface; experiment: flow cytometry, serial dilutions on SupT1 cells
Protocol: as §2, §3

[4] = target: T1, recombinant soluble human CD4; experiment: SPR, sCD4 amine-coupled to sensor chip, antibody flowed over
[5] = target: T1, recombinant soluble human CD4; experiment: rCD4 column of Table 21 (same values as Table 19: BIAcore, rCD4 on chip)
Protocol: as §1

[6] = target: T2, native human CD4 on the cell surface; experiment: flow cytometry, serial dilutions on SupT1 cells, half-maximal fluorescence
Protocol: as §2, §3

[7] = target: T1, recombinant soluble human CD4; experiment: BIAcore, rCD4 coupled to chip, mAb flowed over
Protocol: as §1

[8] = target: T1, recombinant soluble human CD4; experiment: association and dissociation rates of human CD4 antigen for the antibody; method not named
[9] = target: T3, cynomolgus monkey CD4 on peripheral blood lymphocytes (cynomolgus monkey, UniProt P79185 26-458); experiment: two-colour flow cytometry on peripheral blood lymphocytes
T3 construct: whole, on cells; also called cynomolgus CD4 cells
T3 sequence (P79185 26-458): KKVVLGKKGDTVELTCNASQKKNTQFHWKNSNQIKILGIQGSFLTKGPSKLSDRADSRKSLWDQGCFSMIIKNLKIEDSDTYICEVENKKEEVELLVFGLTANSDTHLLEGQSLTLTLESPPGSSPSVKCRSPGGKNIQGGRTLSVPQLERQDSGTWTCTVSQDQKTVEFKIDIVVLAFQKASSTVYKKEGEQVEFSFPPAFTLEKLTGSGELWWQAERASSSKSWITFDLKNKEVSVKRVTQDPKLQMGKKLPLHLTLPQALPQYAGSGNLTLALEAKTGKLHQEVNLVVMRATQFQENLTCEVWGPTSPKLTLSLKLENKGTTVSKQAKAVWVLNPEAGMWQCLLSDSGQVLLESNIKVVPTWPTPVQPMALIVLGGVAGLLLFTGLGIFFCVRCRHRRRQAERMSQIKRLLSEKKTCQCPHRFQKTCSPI
Protocol: (§4) It is further desirable for some purposes that the animal be a non-human primate that expresses CD4 comprising a cross-reactive epitope with human CD4 such that it is recognized by the monoclonal antibody. […] Peripheral blood lymphocytes were isolated from whole blood of chimpanzee, rhesus, and cynomolgus monkeys. […] The stained cells were then analyzed by flow cytometry to determine if each of the human monoclonal antibodies bound to endogenous CD4 on the surface of lymphocytes from each of these three non-human primates.

[10] = target: T4, chimpanzee CD4 on peripheral blood lymphocytes (chimpanzee, UniProt P16004 26-458); experiment: as above
T4 construct: whole, on cells; also called chimpanzee CD4 cells
T4 sequence (P16004 26-458): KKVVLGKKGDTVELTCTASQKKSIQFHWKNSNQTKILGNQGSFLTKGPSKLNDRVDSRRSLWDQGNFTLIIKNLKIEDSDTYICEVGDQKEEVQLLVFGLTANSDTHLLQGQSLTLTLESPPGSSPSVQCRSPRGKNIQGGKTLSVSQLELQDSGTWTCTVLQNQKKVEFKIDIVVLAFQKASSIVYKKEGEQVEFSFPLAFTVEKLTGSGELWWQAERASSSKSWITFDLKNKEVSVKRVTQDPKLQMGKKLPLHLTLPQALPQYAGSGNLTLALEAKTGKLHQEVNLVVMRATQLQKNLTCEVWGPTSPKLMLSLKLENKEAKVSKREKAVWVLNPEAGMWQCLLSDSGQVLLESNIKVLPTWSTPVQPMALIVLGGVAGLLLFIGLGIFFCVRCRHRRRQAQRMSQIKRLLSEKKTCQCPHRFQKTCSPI
Protocol: as §4

[11] = target: T5, rhesus monkey CD4 on peripheral blood lymphocytes (rhesus monkey, UniProt P16003 26-458); experiment: as above
T5 construct: whole, on cells; also called rhesus CD4 cells
T5 sequence (P16003 26-458): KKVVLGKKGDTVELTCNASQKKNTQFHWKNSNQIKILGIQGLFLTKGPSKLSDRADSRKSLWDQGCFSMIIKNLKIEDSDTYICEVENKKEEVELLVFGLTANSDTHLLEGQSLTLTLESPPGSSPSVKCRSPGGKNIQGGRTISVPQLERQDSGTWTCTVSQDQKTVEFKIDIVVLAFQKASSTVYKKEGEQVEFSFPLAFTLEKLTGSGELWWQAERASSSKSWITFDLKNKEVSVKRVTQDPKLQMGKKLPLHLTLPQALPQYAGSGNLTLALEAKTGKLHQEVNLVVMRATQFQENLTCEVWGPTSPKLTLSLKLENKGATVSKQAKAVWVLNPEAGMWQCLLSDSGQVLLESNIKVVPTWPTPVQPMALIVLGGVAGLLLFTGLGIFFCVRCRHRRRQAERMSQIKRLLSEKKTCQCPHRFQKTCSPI
Protocol: as §4

Binder | Ka [1] [M⁻¹] | koff [1] [s⁻¹] | kon [1] [M⁻¹ s⁻¹] | Ratio of Ka (rCD4/nCD4) [2] | Ka [3] [M⁻¹] | Ka [4] [M⁻¹] | koff [4] [s⁻¹] | kon [4] [M⁻¹ s⁻¹] | Ka [5] [M⁻¹] | Ka [6] [M⁻¹] | Ka [7] [M⁻¹] | koff [7] [s⁻¹] | kon [7] [M⁻¹ s⁻¹] | Ka [8] [M⁻¹] | binding result [9] | binding result [10] | binding result [11]
2C5.1 (antibody, V domains shown) VH: EVQLVQSGAEVKKPGESLKISCKGSGYRFTSYWIGWVRQMPGKGLEWMGIIYPGDSDTRYSPSFQGQVTISADKSISTAYLQWSSLKASDTAMYYCARAPTGDWFDPWGQGTLVTVSS VL: DIQMTQSPSSLSASVGDRVTITCRASQGISSWLAWYQQKPEKAPKSLIYAASSLQSGVPSRFSGSGSGTDFTLTISSLQPEDFATYYCQQYNSYPPTFGGGTKVEIKR | – | – | – | – | – | – | – | – | – | – | – | – | – | ~8e+07 | – | – | –
10C5.6 (antibody, human IgG1, V domains shown, Human IgG1 kappa from a hybridoma of an HC2/KCo5 transgenic mouse) VH: QVQLQQWGAGLLKPSETLSLTCAVYGGSFSGYYWSWIRQPPGKGLEWIGEINHSGSTNYNPSLKSRVTISVDTSKNQFSLKLSSVTAADTAVYYCARVINWFDPWGQGTLVTVSS VL: DIQMTQSPSSVSASVGDRVTITCRASQDISSWLAWYQHKPGKAPKLLIYAASSLQSGVPSRFSGSGSGTDFTLTISSLQPEDFATYYCQQANSFPYTFGQGTKLEIK | 1.3e+08 | 0.00071 | 94000 | 2.5 | > 1e+09 | 4.5e+10 | 1.6e-05 | 74000 | 4.5e+09 | 1e+09 | 4.5e+09 | 1.6e-05 | 74000 | – | binds | binds | binds

Further lines, results first:

Ka [1] [M⁻¹] | koff [1] [s⁻¹] | kon [1] [M⁻¹ s⁻¹] | Ratio of Ka (rCD4/nCD4) [2] | Ka [3] [M⁻¹] | Ka [4] [M⁻¹] | koff [4] [s⁻¹] | kon [4] [M⁻¹ s⁻¹] | Ka [5] [M⁻¹] | Ka [6] [M⁻¹] | Ka [7] [M⁻¹] | koff [7] [s⁻¹] | kon [7] [M⁻¹ s⁻¹] | Ka [8] [M⁻¹] | binding result [9] | binding result [10] | binding result [11] | Binder
1.4e+08 | 0.00069 | 93000 | 5.9 | > 1e+09 | 1.1e+10 | 1e-05 | 110000 | 1.1e+10 | 1e+09 | 1.1e+10 | 1e-05 | 110000 | – | – | – | – | 6G5.1 (antibody, human IgG1, V domains shown, Human IgG1 kappa from a hybridoma of an HC2/KCo5 transgenic mouse; VH4-34/JH5; VkL19/Jk2) VH: QVQLQQWGAGLLKPSETLSLTCAVYGGSFSGYYWSWIRQPPGKGLEWIGEINHSGSTNYNPSLKSRVTISVDTSKNQFSLKLSSVTAADTAVYYCARVINWFDPWGQGTLVTVSS VL: DIQMTQSPSSVSASVGDRVTITCRASQDISSWLAWYQHKPGKAPKLLIYAASSLQSGVPSRFSGSGSGTDFTLTISSLQPEDFATYYCQQANSFPYTFGQGTKLEIKR
7.3e+07 | 0.0034 | 250000 | 1.2 | > 1e+09 | 2.3e+09 | 4.2e-05 | 98000 | 2.3e+09 | 2e+09 | 2.3e+09 | 4.2e-05 | 98000 | – | – | – | – | 4D1.4 (antibody, V domains shown, Human IgG1 kappa from a hybridoma of an HC2/KCo5 transgenic mouse) VH: EVQLVQSGAEVKKPGESLKISCKGSGYSFTGYWIGWVRQMPGKGLEWMGIIYPGDSDTTYSPSFQGQVTISADKSISTAYLQWSSLKASDTAMYYCARDQLGLFDYWGQGTLVTVSS VL: DIQMTQSPSSLSASVGDRVTITCRASQGISSWLAWYQQKPEKAPKSLIYSASSLQSGVPSRFSGSGSGTDFTLTISSLQPEDFATYYCQQYDSYPYTFGQGTKLEIKR
– | – | – | – | – | – | – | – | – | – | – | – | – | ~9e+07 | – | – | – | 4E4.2 (antibody, V domains shown) VH: EVQLVQSGAEVKKPGESLKISCKGSGYRFTSYWIGWVRQMPGKGLEWMGIIYPGDSDTRYSPSFQGQVTISADKSISTAYLQWSSLKASDTAMYYCARAPTGDWFDPWGQGTLVTVSS VL: DIQMTQSPSSLSASVGDRVTITCRASQGISSWLAWYQQKPDKAPKSLIYAASSLQSGVPSKFSGSGSGTDFTLTISSLQPEDFATYYCQQYNSYPPTFGGGTKVEIKR
